# Assay results taken from publication PMC11566999.
# T1: YTH-YPet (UniProt Q9Y5A9 380-579)
# T1 sequence: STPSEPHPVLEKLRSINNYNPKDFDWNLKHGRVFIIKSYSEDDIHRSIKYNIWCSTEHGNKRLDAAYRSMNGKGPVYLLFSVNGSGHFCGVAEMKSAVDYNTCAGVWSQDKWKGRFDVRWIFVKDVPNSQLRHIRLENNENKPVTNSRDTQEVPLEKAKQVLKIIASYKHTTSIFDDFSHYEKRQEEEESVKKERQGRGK
# Molecular target: T1, YTH-YPet
# Test: EMSA
binder,measurement,value
CCGGACUGUACAUGAGGAUCACCCAUGU (structured_RNA) [aRNA],binding result,no binding
